In PMC5663709 (Scientific Reports, 2017):

Assays:
[1] = target: recombinant hemagglutinin (HA) trimer of H1N1 A/California/07/2009, ectodomain (Influenza A virus A/California/07/2009 …, UniProt C3W5X2); experiment: ELISA; conditions: both partners purified
[2] = target: purified monomeric HA of H1N1 CA/09 (thrombin-digested ectodomain) (Influenza A virus A/California/07/2009 …, UniProt C3W5X2); experiment: crystal structure; conditions: both partners purified

B1: S40 IgG (antibody, V domains shown)
VH: EVQLVESGGGLVQPGGSLRLSCAASGFTIGDFGIHWVRQAPGKGLEWVAGIWPFGGYTYYADSVKGRFTISADTSKNTAYLQMNSLRAEDTAVYYCARFVNWDGDYMDYWGQGTLVTVSS
VL: DIQMTQSPSSLSASVGDRVTITCRASQDVGFYVAWYQQKPGKAPKLLISWSSYLYSGVPSRFSGSGSGTDFTLTISSLQPEDFATYYCQQYYNYPLTFGQGTKVEIK
notes: copies: 2 + 2
binding result [1]: binds

B2: S40 Fab (Fab, V domains shown)
VH: B1 VH
VL: B1 VL
binding result [2]: binds
